Measured values published in paper PMC9918737.

Legend:
[1] = molecular target: unmodified H2B mono-nucleosome (UniProt P0C0S8)
[2] = molecular target: ubH2B mono-nucleosome (H2B mono-ubiquitinated at lysine 120) (UniProt P0C0S8)
[3] = molecular target: ubH2B mono-nucleosome (H2B mono-ubiquitinated at lysine 120) (UniProt P0C0S8); assay: single-molecule magnetic tweezers (force-jump); 409-bp nucleosome tethered between coverslip and bead, 83 nM FACT in the flow cell, force jumps between 0.1 pN and 11 pN (H2B-nucleosome) or 6 pN (ubH2B-nucleosome), Kd from the ratio of free to FACT-bound states, 25 °C

tension at which the H2B-nucleosome is completely disrupted in the presence of FACT (magnetic tweezers, repeated stretching) [1]: < 10 pN
rupture force of the inner DNA wrap of ubH2B-nucleosome in the presence of FACT (magnetic tweezers) [2]: 20 pN
rupture force of the outer DNA wrap of ubH2B-nucleosome in the presence of FACT (magnetic tweezers) [2]: 10 pN
Kd [3]: 8 nM
Substance: recombinant FACT complex (Flag-SPT16 and His6-SSRP1) (from UniProt Q9Y5B9 1-1047; Q08945 1-709)
